Results: US20230364000A1, “COMPOSITIONS COMPRISING COMBINATIONS OF COLLAGEN OR ELASTIN POLYPEPTIDES WITH ACTIVE INGREDIENTS AND METHODS OF USING SAME” (Geltor, Inc., priority 2020, published 2023)

Columns and labels:
[1] = system: human primary keratinocytes; assay: MTT viability of UVB-irradiated keratinocytes, pre- and post-irradiation treatment; type: cell-based; conditions: 0.1% for 24 hours before and 24 hours after 40 mJ/cm^2 UVB; compared with UVB-irradiated keratinocytes without treatment; FIG. 5
Procedure: To further assess the effects of treatment with a polypeptide of SEQ ID NO: 16 on UVB-irradiated keratinocytes, an experiment was performed with pre- and post-irradiation treatment. Human primary keratinocytes were pre-treated with 0.1% of a polypeptide of SEQ ID NO: 16 for 24 hours, irradiated with 40 mJ/cm^2 UVB light, and then treated again with 0.1% of a polypeptide of SEQ ID NO: 16 for an additional 24 hours. Cell viability was evaluated using the MTT metabolic colorimetric assay.

facial skin [2] = assay: Cutometer facial skin elasticity, clinical study of Example 5; type: in vivo, human; conditions: topical facial serum 0.1%, n=15, FIG. 6
Excerpt: (§1) In a clinical study (n=15 subjects), subjects used a topical facial serum containing 0.1% of a polypeptide of SEQ ID NO: 16 for 8 weeks, after using a protein-free base facial serum for a 1-week washout period. Topical application of a polypeptide of SEQ ID NO: 16 was associated with increased skin elasticity, measured using a cutometer.

facial skin [3] = assay: SIAscope facial skin collagen content, clinical study of Example 5; type: in vivo, human; conditions: topical facial serum 0.1%, n=15, FIG. 7
Excerpt: as §1, with “skin collagen content, as” for “skin elasticity,”, “measured by” for “measured using”, “a SIAscope.” for “a cutometer.”

B1: SEQ ID NO: 16: truncated human collagen type 21 alpha 1 without the DsbA secretion tag, recombinantly expressed in E. coli (protein)
chain: AGFPGLPGPAGEPGRHGKDGLMGSPGFKGEAGSPGAPGQDGTRGEPGIPGFPGNRGLMGQKGEIGPPGQQGKKGAPGMPGLMGSNGSPGQPGTPGSKGSKGEPGIQGMPGASGLKGEPGATGSPGEPGYMGLPGIQGKKGDKGNQGEKGIQGQKGENGRQGIPGQQGIQGHHGAKGERGEKGEPGVR
- cell viability (MTT) [1]: higher cell viability
- subjects showing improvement with an increase in skin elasticity (facial skin [2]; 2 weeks vs baseline): 100%
- subjects showing improvement with an increase in skin elasticity (facial skin [2]; 4 weeks vs baseline): 100%
- skin collagen content (facial skin [3]; 2 weeks vs baseline): increased
- skin collagen content (facial skin [3]; 8 weeks vs baseline): increased
